Test results from patent US20240307885.

Biological target: Insulin from bovine pancreas, P01317
Sequence (P01317 85-105, chain 1 of 2): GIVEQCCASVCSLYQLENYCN
Sequence (P01317 25-54, chain 2 of 2): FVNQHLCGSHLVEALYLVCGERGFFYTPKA

B1: Protein disulfide isomerase from Thermoascus crustaceus (SEQ ID NO: 1) (protein)
chain: ADAESDVRSLKKDTFDDFIKEHDLVLAEFFAPWCGHCQALAPEYEAAASELKEKNIPLAKVDCTEEADLCKEHGVEGYPTLKVFRGLDSVKPYPGARKSAAIVSYMVKQSLPAVSTVTKENLEEFKTMDKVVIIGYIAPDDKTSNETFTAFADSKRDDYLFAATNDAALAKAEGVKQPSIVLYKDFDEKKDVFDGKFDQETMLSWVKTASTPLVGEIGPETYAGYMSAGIPLAFIFAETPEERQKLAADFKPIAEKHRGAINIVTIDAKAFGAYAGNLNLDPQKFPCFAIHDTVKNAKFPYDQSKEVNAKDIGQFVQEVLDGKVEPSIKSEPIPETQEGSVTVVVAHSYRELVIDNDKDVLLEFYAPWCGHCKALAPKYEELGRLYAENPDLASKVTVAKIDATANDVPDEIQGFPTIKLFPAGAKDSPVDYAGSRTVEDLANFIKENGKHKVDALSAATAKPEQGGDVTSTPSISSETTAETAAPTTDGSEHDEL
  Insulin reduction assay with DTT, MALDI MS (worded result): in the presence of the PDI, a significant amount of the cystines are reduced resulting in separation of the insulin into the A peptide and B peptide
  Insulin reduction assay with sulfite, MALDI MS (worded result): in the presence of the PDI, a significant amount of the cystines are reduced resulting in separation of the insulin into the A peptide and B peptide
  Ratio (A chain): mass peak area of A peptide chain to intact insulin, MALDI MS; 2.5 µg/mL PDI, 0 mM DTT: 0.006
  Ratio (A chain): mass peak area of A peptide chain to intact insulin, MALDI MS; 2.5 µg/mL PDI, 0 mM sulfite: 0.009
  Ratio (A chain): mass peak area of A peptide chain to intact insulin, MALDI MS; 2.5 µg/mL PDI, 2 mM DTT: 0.035
  Ratio (A chain): mass peak area of A peptide chain to intact insulin, MALDI MS; 2.5 µg/mL PDI, 2.9 mM sulfite: 0.027
  Ratio (A chain): mass peak area of A peptide chain to intact insulin, MALDI MS; 5 µg/mL PDI, 0 mM DTT: 0.005
  Ratio (A chain): mass peak area of A peptide chain to intact insulin, MALDI MS; 5 µg/mL PDI, 0 mM sulfite: 0.007
  Ratio (A chain): mass peak area of A peptide chain to intact insulin, MALDI MS; 5 µg/mL PDI, 2 mM DTT: 0.07
  Ratio (A chain): mass peak area of A peptide chain to intact insulin, MALDI MS; 5 µg/mL PDI, 2.9 mM sulfite: 0.05
  Ratio (A chain): mass peak area of A peptide chain to intact insulin, MALDI MS; 10 µg/mL PDI, 0 mM DTT: 0.003
  Ratio (A chain): mass peak area of A peptide chain to intact insulin, MALDI MS; 10 µg/mL PDI, 0 mM sulfite: 0.008
  Ratio (A chain): mass peak area of A peptide chain to intact insulin, MALDI MS; 10 µg/mL PDI, 2 mM DTT: 0.172
  Ratio (A chain): mass peak area of A peptide chain to intact insulin, MALDI MS; 10 µg/mL PDI, 2.9 mM sulfite: 0.104
  Ratio (B chain): mass peak area of B peptide chain to intact insulin, MALDI MS; 2.5 µg/mL PDI, 0 mM DTT: 0.01
  Ratio (B chain): mass peak area of B peptide chain to intact insulin, MALDI MS; 2.5 µg/mL PDI, 0 mM sulfite: 0.019
  Ratio (B chain): mass peak area of B peptide chain to intact insulin, MALDI MS; 2.5 µg/mL PDI, 2 mM DTT: 0.109
  Ratio (B chain): mass peak area of B peptide chain to intact insulin, MALDI MS; 2.5 µg/mL PDI, 2.9 mM sulfite: 0.055
  Ratio (B chain): mass peak area of B peptide chain to intact insulin, MALDI MS; 5 µg/mL PDI, 0 mM DTT: 0.009
  Ratio (B chain): mass peak area of B peptide chain to intact insulin, MALDI MS; 5 µg/mL PDI, 0 mM sulfite: 0.018
  Ratio (B chain): mass peak area of B peptide chain to intact insulin, MALDI MS; 5 µg/mL PDI, 2 mM DTT: 0.185
  Ratio (B chain): mass peak area of B peptide chain to intact insulin, MALDI MS; 5 µg/mL PDI, 2.9 mM sulfite: 0.083
  Ratio (B chain): mass peak area of B peptide chain to intact insulin, MALDI MS; 10 µg/mL PDI, 0 mM DTT: 0.007
  Ratio (B chain): mass peak area of B peptide chain to intact insulin, MALDI MS; 10 µg/mL PDI, 0 mM sulfite: 0.017
  Ratio (B chain): mass peak area of B peptide chain to intact insulin, MALDI MS; 10 µg/mL PDI, 2 mM DTT: 0.335
  Ratio (B chain): mass peak area of B peptide chain to intact insulin, MALDI MS; 10 µg/mL PDI, 2.9 mM sulfite: 0.17
